In article PMC4402506:

Tests used:
Assay in all cases: filter binding
Settings in all cases: Nitrocellulose filter binding, 0.5 ml, 37 C, 30-60 min, then agarose gel. Topo IV: 40 mM Tris-HCl pH 7.5, 6 mM MgCl2, 100 mM KOAc, 1 mM DTT, 0.1 mM EDTA
[1] = test system: ntop1 Y723F (nuclear topoisomerase I) (human)
[2] = test system: Topo IV (ParC+ParE) (Escherichia coli)
Tfam (human) = test system: Tfam (human)
EcoRV = test system: EcoRV
RecQ (Escherichia coli) = test system: RecQ (Escherichia coli)
[3] = test system: top1mt Y559F (mitochondrial topoisomerase I) (human)

Substance pBR322, nicked (open circular) has a binding signal (Ka nicked/Ka relaxed) ([1]; nick, position undefined) of 8.6.

For “pBR322, negatively supercoiled topoisomer dLk about -23 (unresolved band below -10)”, the binding signal (fold Ka vs relaxed) [2] was 5.

With “pBR322, relaxed closed circular (dLk 0; dLk -1 as reference for Topo IV and Tfam)” the binding signal (Ka ratio (reference dLk -1)) (Tfam (human)) was 1, the binding signal (Ka ratio (reference dLk 0)) (EcoRV) was 1 and the binding signal (Ka ratio (reference dLk 0)) (RecQ (Escherichia coli)) was 1. It also gave a binding signal (Ka ratio (reference dLk 0)) [1] of 1, a binding signal (Ka ratio (reference dLk 0)) [3] of 1 and a binding signal (Ka ratio (reference dLk -1)) [2] of 1.
